Experimental data as given in US20240425612A1 (published 2024).

Columns and labels:
[1] = target: hFcγRIIIa-158F-streptavidin-His (human, UniProt P08637 17-208); assay: BLI
[2] = target: hFcγRIIIa-158V-streptavidin-His (human, UniProt P08637 17-208); assay: BLI
Chain of hFcγRIIIa-158V-streptavidin-His (P08637 17-208 F176V): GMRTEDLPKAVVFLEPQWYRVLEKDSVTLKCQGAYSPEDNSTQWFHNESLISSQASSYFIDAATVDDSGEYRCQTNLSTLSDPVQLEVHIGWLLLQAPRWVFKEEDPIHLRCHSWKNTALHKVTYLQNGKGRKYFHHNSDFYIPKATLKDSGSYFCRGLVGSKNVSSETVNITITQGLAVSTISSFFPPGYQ

Chain of hFcγRIIIa-158F-streptavidin-His (P08637 17-208): as the sequence (P08637 17-208 F176V) above, with V160F counted along it

Row | Binder | Kd [1] | Kd [2]
1 | Trastuzumab-MFc2 (antibody) Fc: DKTHTCPPCPAPELPGGPSVFLFPPKPKDTLMISRTPEITCVVVDVSHEDPEVKFNWYVDGVEVHNAKTKPREEQYNSTYRVVSVLTVLHRDWLNGKEYKCKVSNKALPAPEEKTISKAKGQPREPQVYTLPPSRDELTKNQVSLTCLVKGFYPSDIVVEWESNGQPENNYKTTPPVLDSDGSFFLYSKLTVDKSRWQQGNVFSCSVLHEALHNHYTQKSLSLSPGK | 56.8 nM | 63.9 nM
2 | Trastuzumab-MFc3 (antibody) Fc: DKTHTCPPCPAPELLGGPDVFLFPPKPKDTLMISRTPEVTCVVVDVSLEDPEVKFNWYVDGVEVHNAKTKPREEQYNSTYRVVSVLTVLHRDWLNGKEYKCKVSNKALPVPEEKTISKAKGQPREPQVYTLPPSRDELTKNQVSLTCLVKGFYPSDIAVEWESNGQPENNYKTTPPVLDSDGSFFLYSKLTVDKSRWQQGNVFSCSVLHEALHNHYTQKSLSLSPGK | 38.5 nM | 32.4 nM
3 | Trastuzumab-MFc6 (antibody) Fc: DKTHTCPPCPAPELPGGPDVFLFPPKPKDTLMISRTPEVTCVVVDVSHEYPEVKFNWYVDGVEVHNAKTKPREEQYNGTYRVVSVLTVLHRDWLNGKEYKCKVSNKALPAPEEKTISKAKGQPREPQVYTLPPSRGELTKNQVSLTCLVKGFYPSDIAVEWESNGQPENNYKTTPPVLDSDGSFFLYSKLTVDKSRWQQGNVFSCSVLHEALHNHYTQKSLSLSPGK | 29.9 nM | 28.9 nM
4 | Trastuzumab-MFc5 (antibody) Fc: DKTHTCPPCPAPELLGGPDVFLFPPKPMDTLMISRTPEVTCVVVDVSLEDPEVKFNWYVDGVEVHNAKTKPREEQYNSTYRVVSVLTVEHMDWLNGKEYKCKVSNKALPVPEEKTISKAKGQPREPQVYTLPPSRDELTKNQVSLTCLVKGFYPSDIAVEWESNGQPENNYKTTPPVLDSDGSFFLYSKLTVDKSRWQQGNVFSCSVLHEALHNHYTQKSLSLSPGK | 75.6 nM | 85 nM
